# System: Saccharomyces cerevisiae
# Test: transcriptional activation domain activity (GFP:mCherry ratio, weighted mean of sorted bins, harmonized to initial dataset scale) (arbitrary fluorescence ratio units); higher = stronger transcriptional activation
# Conditions: beta-estradiol 1 µM; induction time 4 h
# How it was run: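 The activation activity of each tile is the read-weighted mean of bin median fluorescence, averaged across its barcodes and mapped linearly onto the scale of the initial dataset. Tiles were fused to an estradiol-inducible synthetic transcription factor, barcoded, and integrated at URA3 in yeast diploids carrying a GFP reporter. Induction used 1 uM beta-estradiol in SC for 4 hours at 30 °C, after which cells were sorted into 8 GFP:mCherry bins, and any tile with fewer than 50 reads was dropped.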
row,Sequence,transcriptional activation domain activity
1,MHPFSPHCLSLSLLLKFSQLFNISFFLLVMHFLWLDILGFFFILFPNHFPMFG,43800
2,KQYCVRPNSGRIEVGSEVEVQVLLQAMREDPPPDARCRDKFLVQSVAITPERD,42800
3,RADADAAASGGHDRRRKRARSDASPSDGHASDASTARRERSSRRSSRSHPRHA,18500
4,MGTLYPLVLPWFTGSYFLDIGIDFVFQKDTSYLGYILHTLHAPFLLSCLFLVL,65000
5,IQVRLTAFDCLFVLKGLTESTLTQYFLSVIRDDPCVYVSHYVARAMLAWLGLA,55600
6,SSNGEEQSINNKNDIDDNSAYRRNNFRNSSNSGSHTFQLSDLDLDVDMRMDSA,41100
7,QILGCLYCVRWVHMCVYNVSGVQSLIPWLAMLPALARLKFSIWSHRGPPPDGD,52100
8,AAAAAAAASNSYAIPENELLDEDTMNFISSLKNDLSNISNSLPFEYPHEIAEA,123000
9,VILGYCSLFVWFAVCGFCFLCFCVFVFLCFLFFVFFWHSSLGYLAGLAIIITF,18300
10,SRWFLVLFLLPYPRASPFFLVLYLFSLILHSRPCLYCIVLLTVLFTSSCYWAP,53600
11,KSPEKEATKDGDGKPEGTTGTGRGRGRGRGRGGGRGRGRGRGGAVAEKGSYKA,< 6570
12,MLNLHQSCLLLCSLLIITGLGLASTIFIPVNPFYQLLLMENSAFPWIHFVIYC,38500
13,EPSRAGTPAPAPAAGEKKVGEAEGKVAEKAEGEGEGGKGAGEENNGKGKESVK,19100
14,GWKGRGKSGGRGRKTSGGGLKTERKSGGVSKASGGGGSSSRGGRGAGAGAGAG,14100
15,KDGKNEVIVDMQRVRERKREIVNSFRGGSEKRVADAGVTVLMGSASFVDSKTV,34900
16,PSPLPKHQIIREASNVRNITKMKKYDSTFYLHRDHVNYEEYGVDSLLFSYPED,58100
17,YRHLKPIMISSPVFCYLQLLGLIMCYLSLLVKVGKPSPSICISRQFLLPMGFV,43200
18,GARRQARRPRKRESSAADGDDNDADRMDVDREEARGGREQADAGDAEDEDDEE,40000
19,GETVFYKGQGKKRQEIRAPLRRGMALLHRHGHECLLHEGTQVLKGIKYVLRSD,54600
20,IDFHQHESLIGTEDAFFWFLVPLIGVVCIGVCTVLHYVVLIFTHSFRLLYSLV,26700
21,IFTELYFIMSSIWFSKVYYMFGFLFVCFLLMTLTCAAVTILLVYFLLCAENYH,62000

row,Sequence,transcriptional activation domain activity
1,ESGCGREDMTVKSGIVFSFYFFCCLFFFLLSLFVCFPPPFFFILLFPIFIHLY,18900
2,MLHLVTCISPSLYTSIFFLYLFHYFPSSHFLLNCRTSMHFSLSRLTFIYVLVL,50200
3,MLRLLAMLAKYVAFLLVLLNIRSFPLVWHFRLFRAFIQLGLSLQWHKLTHFYL,60600
4,SHALQNRRASHASSAGSGSRRGSREETGEHHHKKHHHHKKHHHRRHSHGGGGG,54500
5,LVQIVCVAGMHVTLYEQSCLYKCENLKRIITSFHHVNRKVRDAFINLYGKLNP,74600
6,PTAPNSSLPGCDVWDDIVTAAYYVNPCFNFYHLIDFCPYLWDELGFPSLAWGP,72200
7,MVRRLINLFLCRPCLLTFLCYLWVFNIFSSASDLYFLFLLSLFGFVFVMGWGS,38900
8,EGYDLLPFRLGCAYVVLGWYWISTTWVEAEPVSQGVKPPKDRDYFHRVKLRFD,42200
9,FNLYLLSWLHLLSSKSSSLGNSSAWWIRPVEITMMSCYWYIFGYLLLWCTLPT,38200
10,MSLFSPCGETPLFLFPLFALTGLAPVLPPGSPLFFYLTLPLSFSFFHFFIFFF,79500
11,LLTWMPTVAWPMYNRCFGSLIWIPIRYELIAIVILSIITFFFLFLAALISIQL,43300
12,MPFSVSASNILLSPFHLIFWSIRNFSNILIFLFSPFFLVLYYASYVFTPIFIP,96500
13,SPRPSYILNAYLFISLLFDIVVLRTVWIALPSFQPVRIVLTSSFALKTIILFL,54000
14,PAEATVAITNVLYVVQKYYPGSHNLITLLLAIRCVMFTVFRFVAAPLCVTHAL,46700
15,VVAYGSGKEEGMKVEGEGEGGKVLRDIIDKLGHALTSTRFAGLPLPHVLAVVK,69700
16,SLSRKKRGRGRPKGSKNKKSGDGAASSAAPSGDATGKRKRGRPPKEKPAEATA,44300
17,MTHALNIVTYLYRQHLLEDEHFLDWILRNLGPCPLERLLVWLLLVSLYWRDLI,49800
18,MLETRFINNLVPLYRFLLPFYIFFFFSIYCYYLTIDPHYFSLSSMVFFFSCCT,57600
19,VFFLSLCFASFFPLGHLCWAKGLFHTLEFIAPISRSVSCYVMGLVLYTFHLPE,22000
20,ELGFVEIVQVSPRFGILLLCMTLSMISIIVDLLSVTPVIPIGVINPFWKFAFV,39800
21,RKKREREAEKAEAKRKEERDARRREREKREEEREREREKEREERRRARERDRE,33900

row,Sequence,transcriptional activation domain activity
1,EMVDIFAHMDNIERLIAPFSVLAEHEVFHFNMLRIYYLTLRLLVLLHGVIEVK,75200
2,VGSWTFGSIMVFGFSYLALTVLPNLCLNCPYSTPVSEMSWHLSHRLLLFILLL,31800
3,KRPTSHTLRPFFYFLLAVIYTVAHALVMIYQMISLNVAVNSYDNALLTLLVSN,52200
4,TSSSEESSNKGQRQLTVSIDSAAHHDNSTIPLDFMPRDALHGFDWSEEDDMSD,39300
5,IGLQVLLGWSYVMINPLAIYSSPYLILFSFSSLVYLVLVNVLTLPSSLPFFHP,87600
6,LTWDVFKLALFFCLFQDISFSFCTFLLCFFLICFAYIVYPLSLSLLNGVLFDP,44900
7,ELKDGGGGESSPIEIADRVVVEECDMEKVALDRTLGRLWRGWRKRLRSPATPV,65100
8,EKSQNNSNVINETIDHTDIHAHHADAHDDSFIESEEWLSKFIMDSQIDNDLKL,139000
9,MVAAATARTRRAATVATRRTRPVVMAMAVVVATRNRRATTRAAGIRQAGIRRV,45900
10,RVVSAFGWKADKHLGFALLKLCLEDRRIRSPMASLMLLAYYTVLTSLCPQVLA,60900
11,MIIIIIIIMGNRFMMMSFLFAFFSLFFFLMKFFLSFSFFLFLSFLLIMFAISL,62100
12,PAASTTHATAAPPAAPSPPSQTTPSAPATAASAPRTSPRPCASSCTSSATSRS,31600
13,MYCFIILYMYILLLFFSRSVYFSLFFFFFCLHFYSIFFFFICSLFIYLFIYLF,63500
14,FLDRGRVGFFFFFLLVSFYSSSWKLLFLLYTHFFVFSGLLALYYFLFWSVLFI,68800
15,DSKLRATALQVRRGGNCPNTVEVLQQLLLSGGGLDTSSSQTQQVSAADAAAVT,33300
16,MDDTERRTAKRSRFDQTEPEPKPRASRFDRRSRSPPARKPESRRSRSPIARPS,17000
17,YSMPSEICIVGFSGVNTAFIVSLLVDLGFQASPIYSMYMFFLTWRFCARLVHY,66500
18,WDLLLGIQMSWDAVLDLWPRLWAWFEFLDTYSDILSSLLVYLSDADFSLIWVL,62800
19,FTSIMMTLVSLVQVGLLQFQCRDLLLCGIYIFYCLIKVPYLSLICSATLLVYG,44300
20,VPGEVTEAEANGEAPKAEDGAEDGEAAKPKKKKKSKAARKAKKAAAASTEDGA,21600
21,TISRLVFAECFAESCVMFLLLMFQALDVLEPSSRLLNWRISLYILMSMILLFV,52800

row,Sequence,transcriptional activation domain activity
1,MAKGGAKDKKSVEKKGADKGKGKSDEAADKGSKGKGGLKAATAVNVRHILCEK,23500
2,LLWSYLLPLFFSLLNELCKRFLPFPLFPLFFYIPCAFYPSPTLSVCSHPLLFI,61500
3,MARQLYSPFFIFLYLPSCIYKNILFSSFLFFLTSLIGIFLHPFFNIVCFICQM,58500
4,MGASLVVFLLFFHLLFKNGLDLLIFPFSFFYSCTIFLSFLSFLYFSFCTHVFF,59800
5,LGFIEIVRVCPRFGILFLCMALSFISIVVDLLSVTPVIPIGVINPFWKFAFVF,58100
6,GSYCISLVNVLVAFGVVLLHASTSGLWHWNPPFRAPNSVVFIYLLSNIFLITV,55000
7,SVYLHALKKVITTWKGEVLPIILARKIQWTEWEIKDLEYEITHFYVKTFFMTI,47900
8,MWLVEVQLLHQSHSLLSHIICLFFLSPHLPSFVFSGALFVYSVMLVSLFFLYL,37400
9,FTFILMMACLVSGIGWCLLYFTCMYLLLIYYILSLFYPPLASCNSFSFFFSFV,64100
10,TGILAVTLWNIFINKYWPKRRALVVIVILLHVLITVNFATNWAFTYSAFIQNG,49800
11,MVLINIPNFLFSLFFFLFSFFSLLPFFTYLTFLSSSSLLLSTFCCSLASSPCM,50000
12,ATWWHVFGTRVFKPVPTYVGEFQTWLQAFIHLSWDWRLSTHMWFRYNFHMWTI,68900
13,STTLPAVDNNNLFDAVASPLADPLCDDIAGNSLPFDNSIDLDNWRNPEAQSGL,71400
14,MLLSSLLCYFLNFSSSSHSVGGWFILPYGNRLLHVAFFPSLLLFRLFFFLWLA,52600
15,SSSNSGGGGGVPEHILARVGYAVVSGLHFLKTKLNVIHRDVKPSNVLCSRAGD,42900
16,KSGRGGGRKGGRGGGKASARGGAGGARGGGGGGRGGGGAHTERGRTGKGAGAS,21800
17,LCAEEYRWHWRAFLTGGGSAFWLLAYGLFFWASRLSLHSMSSAILYLGYLFLL,77800
18,SGLAFRNFWIRRISFAGHLRNSNSALTPSRYFRLMSMAVVQMFWGLVVTSLYT,46800
19,AREIISAGWAKVHDSGSRRNANSQPEEEEEGGWKAKLRELQEEAKAAARGVWG,35300
20,PRVLHGLELICHIAYLIIILHFIFDWRIDGHMPEWRFYGAREYILFIYSLSIL,31100
